*1 amine or outer side, *2 acyl side, *3 side chain or, on linkers, in order; H or OH if unused. Side-chain parts run from the residue outwards. The star is where a group is joined. C18 diacid = O=C(O)CCCCCCCCCCCCCCCCC(=O)*; γGlu = O=C(O)[C@H](CCC(=O)[*:2])N[*:1]; Isovaleryl = CC(C)CC(=O)*; AEEA = NCCOCCOCC(=O)O
Target: T1, human neuropeptide Y2 receptor (human, UniProt P49146 1-381)
T1 construct: whole, on cells; also called hNPY2 receptor; hNPY2-R
T1 sequence (looked up): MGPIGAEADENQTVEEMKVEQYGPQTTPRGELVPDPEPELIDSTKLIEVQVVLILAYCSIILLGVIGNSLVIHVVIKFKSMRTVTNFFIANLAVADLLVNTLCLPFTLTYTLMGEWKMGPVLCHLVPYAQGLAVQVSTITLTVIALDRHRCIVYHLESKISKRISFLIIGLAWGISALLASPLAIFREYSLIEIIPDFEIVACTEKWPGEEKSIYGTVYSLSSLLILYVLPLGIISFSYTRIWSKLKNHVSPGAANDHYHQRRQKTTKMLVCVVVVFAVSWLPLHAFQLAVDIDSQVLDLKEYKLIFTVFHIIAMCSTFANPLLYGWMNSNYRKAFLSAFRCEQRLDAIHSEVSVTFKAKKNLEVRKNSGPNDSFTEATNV
Assay: radioligand competition (125I-PYY(1-36)), hNPY2R membranes
Procedure, shortened: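 Commercial human Y2 receptor membranes (0.5 μg protein/well) were incubated with peptide for 2 h at room temperature in 50 mM HEPES, 5 mM MgCl₂, 1 mM CaCl₂, pH 7.4, with 0.2% ovalbumin. Bound radioligand was separated on PEI-soaked GF/C filters and counted by scintillation, and IC₅₀ came from nonlinear sigmoidal regression.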

B1: Compound 110 (peptide)
peptide: Isovaleryl-APEK([AEEA-AEEA-γGlu-C18 diacid])PEEDAEPEEIQRYYVSLRHYYNWLTRQRY-NH2
SMILES: CC[C@H](C)[C@H](NC(=O)[C@H](CCC(=O)O)NC(=O)[C@H](CCC(=O)O)NC(=O)[C@@H]1CCCN1C(=O)[C@H](CCC(=O)O)NC(=O)[C@H](C)NC(=O)[C@H](CC(=O)O)NC(=O)[C@H](CCC(=O)O)NC(=O)[C@H](CCC(=O)O)NC(=O)[C@@H]1CCCN1C(=O)[C@H](CCCCNC(=O)COCCOCCNC(=O)COCCOCCNC(=O)CC[C@H](NC(=O)CCCCCCCCCCCCCCCCC(=O)O)C(=O)O)NC(=O)[C@H](CCC(=O)O)NC(=O)[C@@H]1CCCN1C(=O)[C@H](C)NC(=O)CC(C)C)C(=O)N[C@@H](CCC(N)=O)C(=O)N[C@@H](CCCNC(=N)N)C(=O)N[C@@H](Cc1ccc(O)cc1)C(=O)N[C@@H](Cc1ccc(O)cc1)C(=O)N[C@H](C(=O)N[C@@H](CO)C(=O)N[C@@H](CC(C)C)C(=O)N[C@@H](CCCNC(=N)N)C(=O)N[C@@H](Cc1c[nH]cn1)C(=O)N[C@@H](Cc1ccc(O)cc1)C(=O)N[C@@H](Cc1ccc(O)cc1)C(=O)N[C@@H](CC(N)=O)C(=O)N[C@@H](Cc1c[nH]c2ccccc12)C(=O)N[C@@H](CC(C)C)C(=O)N[C@H](C(=O)N[C@@H](CCCNC(=N)N)C(=O)N[C@@H](CCC(N)=O)C(=O)N[C@@H](CCCNC(=N)N)C(=O)N[C@@H](Cc1ccc(O)cc1)C(N)=O)[C@@H](C)O)C(C)C
**Q.** Which Ki does the source give for B1 here?
**A.** 0.77 nM

B2: Compound 122 (peptide)
peptide: Isovaleryl-APEK([AEEA-AEEA-γGlu-C18 diacid])PEEDAAPEELQRYYVSLRHYYNWLTRQRY-NH2
SMILES: CC(C)CC(=O)N[C@@H](C)C(=O)N1CCC[C@H]1C(=O)N[C@@H](CCC(=O)O)C(=O)N[C@@H](CCCCNC(=O)COCCOCCNC(=O)COCCOCCNC(=O)CC[C@H](NC(=O)CCCCCCCCCCCCCCCCC(=O)O)C(=O)O)C(=O)N1CCC[C@H]1C(=O)N[C@@H](CCC(=O)O)C(=O)N[C@@H](CCC(=O)O)C(=O)N[C@@H](CC(=O)O)C(=O)N[C@@H](C)C(=O)N[C@@H](C)C(=O)N1CCC[C@H]1C(=O)N[C@@H](CCC(=O)O)C(=O)N[C@@H](CCC(=O)O)C(=O)N[C@@H](CC(C)C)C(=O)N[C@@H](CCC(N)=O)C(=O)N[C@@H](CCCNC(=N)N)C(=O)N[C@@H](Cc1ccc(O)cc1)C(=O)N[C@@H](Cc1ccc(O)cc1)C(=O)N[C@H](C(=O)N[C@@H](CO)C(=O)N[C@@H](CC(C)C)C(=O)N[C@@H](CCCNC(=N)N)C(=O)N[C@@H](Cc1c[nH]cn1)C(=O)N[C@@H](Cc1ccc(O)cc1)C(=O)N[C@@H](Cc1ccc(O)cc1)C(=O)N[C@@H](CC(N)=O)C(=O)N[C@@H](Cc1c[nH]c2ccccc12)C(=O)N[C@@H](CC(C)C)C(=O)N[C@H](C(=O)N[C@@H](CCCNC(=N)N)C(=O)N[C@@H](CCC(N)=O)C(=O)N[C@@H](CCCNC(=N)N)C(=O)N[C@@H](Cc1ccc(O)cc1)C(N)=O)[C@@H](C)O)C(C)C
**Q.** With B2 as the binder, how does the Ki read?
**A.** 1.84 nM

B3: Compound 115 (peptide)
peptide: Isovaleryl-APEK([AEEA-AEEA-γGlu-C18 diacid])PEEEASPEALQRYYVSLRHYYNWLTRQRY-NH2
SMILES: CC(C)CC(=O)N[C@@H](C)C(=O)N1CCC[C@H]1C(=O)N[C@@H](CCC(=O)O)C(=O)N[C@@H](CCCCNC(=O)COCCOCCNC(=O)COCCOCCNC(=O)CC[C@H](NC(=O)CCCCCCCCCCCCCCCCC(=O)O)C(=O)O)C(=O)N1CCC[C@H]1C(=O)N[C@@H](CCC(=O)O)C(=O)N[C@@H](CCC(=O)O)C(=O)N[C@@H](CCC(=O)O)C(=O)N[C@@H](C)C(=O)N[C@@H](CO)C(=O)N1CCC[C@H]1C(=O)N[C@@H](CCC(=O)O)C(=O)N[C@@H](C)C(=O)N[C@@H](CC(C)C)C(=O)N[C@@H](CCC(N)=O)C(=O)N[C@@H](CCCNC(=N)N)C(=O)N[C@@H](Cc1ccc(O)cc1)C(=O)N[C@@H](Cc1ccc(O)cc1)C(=O)N[C@H](C(=O)N[C@@H](CO)C(=O)N[C@@H](CC(C)C)C(=O)N[C@@H](CCCNC(=N)N)C(=O)N[C@@H](Cc1c[nH]cn1)C(=O)N[C@@H](Cc1ccc(O)cc1)C(=O)N[C@@H](Cc1ccc(O)cc1)C(=O)N[C@@H](CC(N)=O)C(=O)N[C@@H](Cc1c[nH]c2ccccc12)C(=O)N[C@@H](CC(C)C)C(=O)N[C@H](C(=O)N[C@@H](CCCNC(=N)N)C(=O)N[C@@H](CCC(N)=O)C(=O)N[C@@H](CCCNC(=N)N)C(=O)N[C@@H](Cc1ccc(O)cc1)C(N)=O)[C@@H](C)O)C(C)C
**Q.** B3 was tested. Which Ki did it give?
**A.** 1.94 nM

B4: Compound 121 (peptide)
peptide: Isovaleryl-APAK([AEEA-AEEA-γGlu-C18 diacid])PEADASPEELQRYYVSLRHYYNWLTRQRY-NH2
SMILES: CC(C)CC(=O)N[C@@H](C)C(=O)N1CCC[C@H]1C(=O)N[C@@H](C)C(=O)N[C@@H](CCCCNC(=O)COCCOCCNC(=O)COCCOCCNC(=O)CC[C@H](NC(=O)CCCCCCCCCCCCCCCCC(=O)O)C(=O)O)C(=O)N1CCC[C@H]1C(=O)N[C@@H](CCC(=O)O)C(=O)N[C@@H](C)C(=O)N[C@@H](CC(=O)O)C(=O)N[C@@H](C)C(=O)N[C@@H](CO)C(=O)N1CCC[C@H]1C(=O)N[C@@H](CCC(=O)O)C(=O)N[C@@H](CCC(=O)O)C(=O)N[C@@H](CC(C)C)C(=O)N[C@@H](CCC(N)=O)C(=O)N[C@@H](CCCNC(=N)N)C(=O)N[C@@H](Cc1ccc(O)cc1)C(=O)N[C@@H](Cc1ccc(O)cc1)C(=O)N[C@H](C(=O)N[C@@H](CO)C(=O)N[C@@H](CC(C)C)C(=O)N[C@@H](CCCNC(=N)N)C(=O)N[C@@H](Cc1c[nH]cn1)C(=O)N[C@@H](Cc1ccc(O)cc1)C(=O)N[C@@H](Cc1ccc(O)cc1)C(=O)N[C@@H](CC(N)=O)C(=O)N[C@@H](Cc1c[nH]c2ccccc12)C(=O)N[C@@H](CC(C)C)C(=O)N[C@H](C(=O)N[C@@H](CCCNC(=N)N)C(=O)N[C@@H](CCC(N)=O)C(=O)N[C@@H](CCCNC(=N)N)C(=O)N[C@@H](Cc1ccc(O)cc1)C(N)=O)[C@@H](C)O)C(C)C
**Q.** With B4 as the binder, how does the Ki read?
**A.** 0.61 nM

B5: Compound 111 (peptide)
peptide: Isovaleryl-APEK([AEEA-AEEA-γGlu-C18 diacid])PEEDAEPEELQRYYVELRHYYNWLTRQRY-NH2
SMILES: CC(C)CC(=O)N[C@@H](C)C(=O)N1CCC[C@H]1C(=O)N[C@@H](CCC(=O)O)C(=O)N[C@@H](CCCCNC(=O)COCCOCCNC(=O)COCCOCCNC(=O)CC[C@H](NC(=O)CCCCCCCCCCCCCCCCC(=O)O)C(=O)O)C(=O)N1CCC[C@H]1C(=O)N[C@@H](CCC(=O)O)C(=O)N[C@@H](CCC(=O)O)C(=O)N[C@@H](CC(=O)O)C(=O)N[C@@H](C)C(=O)N[C@@H](CCC(=O)O)C(=O)N1CCC[C@H]1C(=O)N[C@@H](CCC(=O)O)C(=O)N[C@@H](CCC(=O)O)C(=O)N[C@@H](CC(C)C)C(=O)N[C@@H](CCC(N)=O)C(=O)N[C@@H](CCCNC(=N)N)C(=O)N[C@@H](Cc1ccc(O)cc1)C(=O)N[C@@H](Cc1ccc(O)cc1)C(=O)N[C@H](C(=O)N[C@@H](CCC(=O)O)C(=O)N[C@@H](CC(C)C)C(=O)N[C@@H](CCCNC(=N)N)C(=O)N[C@@H](Cc1c[nH]cn1)C(=O)N[C@@H](Cc1ccc(O)cc1)C(=O)N[C@@H](Cc1ccc(O)cc1)C(=O)N[C@@H](CC(N)=O)C(=O)N[C@@H](Cc1c[nH]c2ccccc12)C(=O)N[C@@H](CC(C)C)C(=O)N[C@H](C(=O)N[C@@H](CCCNC(=N)N)C(=O)N[C@@H](CCC(N)=O)C(=O)N[C@@H](CCCNC(=N)N)C(=O)N[C@@H](Cc1ccc(O)cc1)C(N)=O)[C@@H](C)O)C(C)C
**Q.** For B5, which Ki is on record?
**A.** 5.43 nM

B6: Compound 119 (peptide)
peptide: Isovaleryl-APEK([AEEA-AEEA-γGlu-C18 diacid])PEEEASPEELQRYYVTLRHYYNWLTRQRY-NH2
SMILES: CC(C)CC(=O)N[C@@H](C)C(=O)N1CCC[C@H]1C(=O)N[C@@H](CCC(=O)O)C(=O)N[C@@H](CCCCNC(=O)COCCOCCNC(=O)COCCOCCNC(=O)CC[C@H](NC(=O)CCCCCCCCCCCCCCCCC(=O)O)C(=O)O)C(=O)N1CCC[C@H]1C(=O)N[C@@H](CCC(=O)O)C(=O)N[C@@H](CCC(=O)O)C(=O)N[C@@H](CCC(=O)O)C(=O)N[C@@H](C)C(=O)N[C@@H](CO)C(=O)N1CCC[C@H]1C(=O)N[C@@H](CCC(=O)O)C(=O)N[C@@H](CCC(=O)O)C(=O)N[C@@H](CC(C)C)C(=O)N[C@@H](CCC(N)=O)C(=O)N[C@@H](CCCNC(=N)N)C(=O)N[C@@H](Cc1ccc(O)cc1)C(=O)N[C@@H](Cc1ccc(O)cc1)C(=O)N[C@H](C(=O)N[C@H](C(=O)N[C@@H](CC(C)C)C(=O)N[C@@H](CCCNC(=N)N)C(=O)N[C@@H](Cc1c[nH]cn1)C(=O)N[C@@H](Cc1ccc(O)cc1)C(=O)N[C@@H](Cc1ccc(O)cc1)C(=O)N[C@@H](CC(N)=O)C(=O)N[C@@H](Cc1c[nH]c2ccccc12)C(=O)N[C@@H](CC(C)C)C(=O)N[C@H](C(=O)N[C@@H](CCCNC(=N)N)C(=O)N[C@@H](CCC(N)=O)C(=O)N[C@@H](CCCNC(=N)N)C(=O)N[C@@H](Cc1ccc(O)cc1)C(N)=O)[C@@H](C)O)[C@@H](C)O)C(C)C
**Q.** Which Ki does the source give for B6 here?
**A.** 3.32 nM

Reference: patent US20210139548A1 (published 2021)
